Source: the DeepSol protein solubility set

Assay: soluble on expression in E. coli; label from the status in PepcDB or PDB records

Row | Sequence | soluble on expression in E. coli
1 | MGHHHHHHENLYFQSHLYFQSHDCGSAVTERPKAAPIPTVNPEGKLKKEPNMFSPTLMLPGLGTLSSSQMYPACSQMPTQPAQLGPGKQDTLHSCWQQLYSPSPSASSLLSLHSHSSFTAEVPQPGAQGSSSLPAYNPLNWPDEKNSSFYRNFGNTHGMGAALVSAAGMQSVSSSSIVQGTHQASATTASIMTMPRTPGEVPFLRQQVGYRS | not soluble
2 | SSGHKCYPWDLQDRYAQDKSVVNKMQQKYWETKQAFIKATGKKEDEHVVASDADLDAKLELFHSIQRTCLDLSKAIVLYQKRICFLSQEENELGKFLRSQGFQDKTRAGKMMQATGKALCFSSQQRLALRNPLCRFHQEVETFRHRAISDTWLTVNRMEQCRTEYRGALLWMKDVSQELDPDLYKQMEKFRKVQTQVRLAKKNFDKLKMDVCQKVDLLGASRCNLLSHMLATYQTTLLHFWEKTSHTMAAIHESFKGYQPYEFTTLKSLQDPMKKLVEKEEKKKINQQESTDAAVQEPSQLISLEEENQRKESSSFKTEDGKSILSALDKGSTHTACSGPIDELLDMKSEEGACLGPVAGTPEPEGADKDDLLLLSEIFNASSLEEGEFSKEWAAVFGDGQVKEPVPTMALGEPDPKAQTGSGFLPSQLLDQNMKDLQASLQEPAKAASDLTAWFSLFADLDPLSNPDAVGKTDKEHELLNA | soluble
3 | MKQQGTTLPANNHTLKQYAFFAGMLSSLKKQKWRKGMSESLHLTRNGSILEITLDRPKANAIDAKTSFEMGEVFLNFRDDPQLRVAIITGAGEKFFSAGWDLKAAAEGEAPDADFGPGGFAGLTEIFNLDKPVIAAVNGYAFGGGFELALAADFIVCADNASFALPEAKLGIVPDSGGVLRLPKILPPAIVNEMVMTGRRMGAEEALRWGIVNRVVSQAELMDNARELAQQLVNSAPLAIAALKEIYRTTSEMPVEEAYRYIRSGVLKHYPSVLHSEDAIEGPLAFAEKRDPVWKGR | not soluble
4 | MMDAMTDPITFAATAAGRDAAHPLRDISFGEIGIATERKPDGTIYVRSTTTLTDYPVRITDRLHHFAETAPDRVFMAERNGEGGWRRISYAEMLRAAQTIASALIARGLSAERPVMILSGNSIDHAMVMFGALYAGVAMCPVSPPYSLVSKDYGKLRHIVGLLTPGLIFADDITAFAPAILATVPEDVELAATRGEVKGRKVTSLAELLATPEHPELAAKHEAIGHDTIAKFLLTSGSTGNPKAVINTQRMICANQVMIREAMAFLKDEPPVIVDWLPWNHTFGGNHNIGLTLFNGGSMYIDDGKPTPAGIASTIRNLREIAPTVYFNVPKGYESLLPVLREDQQLRKLFFSRLHAMFFSGASLAAHVWNGLDEVAVAETGARVPMLTGLGATETAPFFMSVTPQTSRSGHVGLPVPGNEAKLVPNNGKLEVRAKGPNITPGYWRAPELTDKAFDEEGFYKLNDALKPVDANDLSRGFDFDGRISEDFKLASGTWVSVGPLRAKFIAACASLVRDVVIAGLDRDYVTALAILDPDGCKLINATLPLEDLAGMAADHLIREAFRERFATLLTQATGSSNRVTRAVLLGEPLSIDKGEITDKGSVNQRAVLEYRASLIADLYADPPPAHVIALELEHHHHHH | soluble
5 | MLNDVYNKRIIELAGNIPRIGRLERPDASATAHSKLCGSTVTIDLKMDGDTVTDFAHIVKACALGQASSSIMASHVVGSTASELKALRETVRKMLKENGAPPDGKWADIAMLEPVRDYKARHASTLLTFDAVVDAIGQIEAQNDGAKATA | not soluble
6 | MKKEHSPKNKVRHFASVEHLNPEAVAAFVDNELSPAAAHRAKIHLVHCAECREEIHRQRRAADRLRDGNNSDMRPSSDLIAKLQSIAACCPDGPTAEEVPSSPQSLLDKLDGVARNIYKTTKTLREARNEALRQYDR | not soluble
7 | MNSLDSQITALYTLAHELLYLGSDGSPIYSDHFSRLNGDVLSRANTLYPHHGSTDEEEARLCLSLLMGYNATIYNNGDKEVRIQQILNRCWEVLDRLPASLLKVRLLTYCYG | not soluble
8 | MALLTSKLRYLLLFYAVFQAAQFGLRWKSYDISPKQFKTIAGKAAAAPTISQSISTLTSGMRTYYEPIMPSHFEWHAIQLGGLTLRMYPMLTAFTEFAAAFSAPFPTSGRPGLHWANTTCTVLKGKVSRFNDGTQDETSENFASGAAFRHGQFESHVYSFEKDTYVACYGRGFLPLSSTVHVTSGISLGEPLSVIQFYMKQAYNYWNNLSHTLYRVFQHYKARATGEL | not soluble
9 | MVKKVLLINGPNLNLLGTREPEKYGTTSLSDIEQAAIEQAKLKNNDSEVLVFQSNTEGFIIDRIHEAKRQGVGFVVINAGAYTHTSVGIRDALLGTAIPFIEVHITNVHQREPFRHQSYLSDKAVAVICGLGVYGYTAAIEYALNY | soluble
10 | MGSDKIHHHHHHMSNKLTYIVASGDTYTSIVNKINQSTPLTVSQLADANPSIQANQLQIGQALDIPLSTDGLIPDDNPALLTPAAEFMGYWYPYSASCPKNATLSVALYGWGPQKVIEWGKQADVQSHLNGEKYLSFGGGSESGKFTEQALNEITTAITQGQIKGYDGIAYDVEVADANLGAQFANSFEAAKACGFKVLVTISHSAPYDVADKDQLMKSFFINPHIDILSPQLYSKGDESQNDYALTSGSSITWRDYASTKAAIVPSIVHASYYEAAKIYFKNQGVELSGYLQWK | not soluble
11 | MASMTGGQQMGRGSEEPNPNDGYDYMQHGFDWPGLQEGGTTKYPACSGSNQSPIDINTNQLMEPSSRSGTSAVSLNGLNVDGAQADGITLTNAKVDLEQGMKVTFDQPAANLPTIEIGGTTKSFVPIQFHFHHFLSEHTINGIHYPLELHIVMQEQDPADVATAQLAVIGIMYKYSENGDAFLNSLQTQIEGKIGDGTASYGDTGVSIDNINVKTQLLPSSLKYAGYDGSLTTPGCDERVKWHVFTTPREVTREQMKLFVDVTMGAHAGADVVNNRMIQDLGDREVYKYNY | soluble
12 | MGSDKIHHHHHHMGIRVSTISRCIGHLEDEIGVALFLRRPNGVTLTFAGEQFLVRARRAMTEVRHAICEAGIAGTGRNGFVRLGLLSSLAAPFPAMLIKIYCAAYPGVRILYSEGGAADHRAALQHHRLDLAFLPHPEKAEGCDALGLWEERLFAAMAQDDPLTRHDVVTWDDLRERHFIFSEVPPGPELLDYLTERLVGFGFLLKADLLTVYRDTVMRVIANGSDVTVIGEARVSHPIQGVACRPITGESLFFHAVWLPTNDNPAFRRFLSLAKVLSKQCSVCELKEGLAGPSGEDHSVMDETSASLERKSRLLKIVSERCATCLLKKAIAD | not soluble
13 | MVRVYIGRLPNRASDRDVEHFFRGYGKLSDVIMKNGFGFVDFQDQRDADDAVHDLNGKELCGERVILEFPRRKVGYNEERSGSGFRGREPTFRKGGERQFSNRYSRPCSTRFRLVIDNLSTRYSWQDIKDHIRKLGIEPTYSEAHKRNVNQAIVCFTSHDDLRDAMNKLQGEDLNGRKLKCTDETRDRSRSRSPRRRSRSRSPTRSRSPPARRRSPGSDRSDRKSRSASPKKRSDKRARSESKSRSRSGGRRSRSNSPPNRSPSPKKRRDNSSPRSGSASP | not soluble
14 | MGSDKIHHHHHHMGKGFTGAILTVMGVKSHIATTTGKTVINDRMVTIHFHSETLLNTEGEVPGDWLRLWFPHESRPGKLYQRAYTLTNVDADAGTFDLAFVLHEPLGPASAWATRCEAGESLEVMRYPGIPFAIPDPAPRGFLFLGDLTSYPAICSILETLDGEIPATAYLIAHDPLDYTFDFPQGEHITAQWISNEQSFIDHIADTDYTDFYTWIGAESSETRAAKKHLQTHAGMPKTHMNAQGYWNKGRAMGKSN | not soluble
15 | MSEVNIVVNGREAGSKSKGCALCGATWGDYHADFLGEDLFFCCDICAAEFMNMMDEAFKHTARHNVDELHIDGNYQLGRNVLLKNGEDRLRFYVKFGPGAVIKEFKITD | soluble
16 | MSLQNIRFGECINSPYVKPKRVFYTERGIEKSWDVVEAHDSVSVLLFDPKKRAFVLVKQFRPAVFLKGTSGYTYELCAGIVDKPGKSLEVIAQEEILEECGYSLSIDSLERITSFYTSVGFAGSRQTLFYAEVEDSLRQGEGGGVESENIEVVHLPLLEARAFMLDEERPKTPGLLFAFMWFFERHPKNEGHHHHHH | soluble
